The values that follow come from publication PMC5565208.

Like-named read-outs stand apart in the source and are kept apart here.

The target of series [1] is BifR (biofilm regulator), MarR homologue from Burkholderia thailandensis E264 (Burkholderia thailandensis E264). Nature of the series: SEC. For orientation: SEC sorts molecules by how far they enter the pores of the column.
Series [2] has the same target. Nature of the series: cross-linking.
Series [3] shares this target. Nature of the series: SEC. This is another data set of the same source.
Series [4] relates to BifR (Burkholderia thailandensis E264). Nature of the series: EMSA. For orientation: Mobility shift assays separate free from complexed probe on a gel.
Series [5] shares this test system. Briefly: EMSA. This is another data set of the same source.

The stoichiometry N is a count of units in the complex or per binding partner. For the substance “BifR (biofilm regulator), MarR homologue from Burkholderia thailandensis E264 (natural protein)”, the figures for the stoichiometry N in series [1], in series [2] and in series [3] were 4, 2 and 2, respectively.

The term Kd denotes the concentration at which binding is half-saturated. Low values mean a tighter complex, high ones a looser complex. As to 355 bp ecsC-emrB operator DNA, the Kd came to 1.4 nM in series [4] and 0.9 nM in series [5].
